Data published in paper PMC2239301.

Molecular target: Smy2p fused to the LexA-DNA binding domain (S. cerevisiae)
Assay: two-hybrid

Smy2p fused to the LexA-DNA binding domain (S. cerevisiae), sequence (P32909 whole entry, the tested form may be a part): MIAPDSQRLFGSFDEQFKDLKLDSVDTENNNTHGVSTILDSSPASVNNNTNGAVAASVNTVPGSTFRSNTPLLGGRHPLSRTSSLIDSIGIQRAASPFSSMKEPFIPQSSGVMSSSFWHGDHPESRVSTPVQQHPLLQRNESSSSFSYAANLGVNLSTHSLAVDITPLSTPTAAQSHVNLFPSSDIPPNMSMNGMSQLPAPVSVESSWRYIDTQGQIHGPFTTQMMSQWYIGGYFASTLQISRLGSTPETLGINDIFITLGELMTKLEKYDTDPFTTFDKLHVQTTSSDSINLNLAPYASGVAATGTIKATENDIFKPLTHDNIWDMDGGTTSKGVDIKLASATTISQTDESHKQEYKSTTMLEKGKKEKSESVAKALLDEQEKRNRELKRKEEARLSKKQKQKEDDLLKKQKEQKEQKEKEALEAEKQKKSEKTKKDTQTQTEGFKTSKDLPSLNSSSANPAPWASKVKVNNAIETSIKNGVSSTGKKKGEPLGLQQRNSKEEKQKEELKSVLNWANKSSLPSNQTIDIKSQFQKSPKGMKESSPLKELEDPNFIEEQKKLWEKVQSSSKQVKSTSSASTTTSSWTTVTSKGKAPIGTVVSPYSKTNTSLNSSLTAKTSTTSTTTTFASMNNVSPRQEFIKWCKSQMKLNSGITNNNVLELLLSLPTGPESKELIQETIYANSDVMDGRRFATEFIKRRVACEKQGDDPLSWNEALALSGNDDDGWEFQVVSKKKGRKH

β-galactosidase activity: 26 units
B1: Sec23p connected to the B42 acidic activation domain (natural protein)
chain: MDFETNEDINGVRFTWNVFPSTRSDANSNVVPVGCLYTPLKEYDELNVAPYNPVVCSGPHCKSILNPYCVIDPRNSSWSCPICNSRNHLPPQYTNLSQENMPLELQSTTIEYITNKPVTVPPIFFFVVDLTSETENLDSLKESIITSLSLLPPNALIGLITYGNVVQLHDLSSETIDRCNVFRGDREYQLEALTEMLTGQKPTGPGGAASHLPNAMNKVTPFSLNRFFLPLEQVEFKLNQLLENLSPDQWSVPAGHRPLRATGSALNIASLLLQGCYKNIPARIILFASGPGTVAPGLIVNSELKDPLRSHHDIDSDHAQHYKKACKFYNQIAQRVAANGHTVDIFAGCYDQIGMSEMKQLTDSTGGVLLLTDAFSTAIFKQSYLRLFAKDEEGYLKMAFNGNMAVKTSKDLKVQGLIGHASAVKKTDANNISESEIGIGATSTWKMASLSPYHSYAIFFEIANTAANSNPMMSAPGSADRPHLAYTQFITTYQHSSGTNRIRVTTVANQLLPFGTPAIAASFDQEAAAVLMARIAVHKAETDDGADVIRWLDRTLIKLCQKYADYNKDDPQSFRLAPNFSLYPQFTYYLRRSQFLSVFNNSPDETAFYRHIFTREDTTNSLIMIQPTLTSFSMEDDPQPVLLDSISVKPNTILLLDTFFFILIYHGEQIAQWRKAGYQDDPQYADFKALLEEPKLEAAELLVDRFPLPRFIDTEAGGSQARFLLSKLNPSDNYQDMARGGSTIVLTDDVSLQNFMTHLQQVAVSGQA
